Here are results for 10 molecules from patent US20250320312A1 (OXITOPE PHARMA B V, published 2025).

T1: Peptide 8: Biotin-AEAAAKEAAAKEAAAKEAAAKAAA-Tyr-acid (N-terminal biotin; C-terminal acid; no PC)
T1 construct: control peptide without PC
T1 peptide: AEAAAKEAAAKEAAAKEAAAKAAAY

T2: Peptide 4: Biotin-AGGGGSGGGGSGGGGSAAA-Tyr-acid (N-terminal biotin; C-terminal acid; no PC)
T2 construct: control peptide without PC
T2 peptide: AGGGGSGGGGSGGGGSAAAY

B1: PcOxP_DB02_B07 (scFv, V domains shown)
VH: EVQLLESGGGLVQPGGSLRLSCAASGFTFSDQYMEWVRQAPGKGLEWVAASRNNANDYTTEYADSVKGRFTISRDNSKNTLYLQMNSLRAEDTAVYYCARDYYGSSYWYFDVWGQGTLVTVSS
VL: DIVMTQSPDSLAVSLGERATINCTASESLYSSKHKVHYLAWYQQKPGQPPKLLIYGASNRQIGVPDRFSGSGSGTDFTLTISSLQAEDVAVYYCAQFYHYPLTFGGGTKVEIK
notes: scFv in periplasmic extract
B2: PcOxP_DB02_C08 (scFv, V domains shown)
VH: B1 VH with Q32P, N54K, S106P
VL: B1 VL with T24G, H34S, Q61Y, H99S
notes: scFv in periplasmic extract
B3: PcOxP_DB02_C04 (scFv, V domains shown)
VH: B1 VH with F27Q, Q32F, N54K, D57G, A63T
VL: B1 VL with S58N, Q61Y, H99S
notes: scFv in periplasmic extract
B4: PcOxP_DB02_D03 (scFv, V domains shown)
VH: B1 VH with F29Q, Q32F, N54K, D57A, S105Y
VL: B1 VL with A57N, Q61Y, A95G, H99S
notes: scFv in periplasmic extract
B5: PcOxP_DB02_C10 (scFv, V domains shown)
VH: B1 VH with Q32Y, N54K
VL: B1 VL with Q61Y, H99E
notes: scFv in periplasmic extract
B6: PcOxP_DB02_D02 (scFv, V domains shown)
VH: B1 VH with Q32Y, N54K, V112T
VL: B1 VL with A25S, L29V, K33S, Q61Y, H99Y
notes: scFv in periplasmic extract
B7: PcOxP_DB02_C05 (scFv, V domains shown)
VH: B1 VH with F29A, Q32F, N54K
VL: B1 VL with Q61Y, H99S
notes: scFv in periplasmic extract
B8: PcOxP_DB02_C03 (scFv, V domains shown)
VH: B1 VH with Q32Y, N53W, N54K
VL: B1 VL with Q61Y, H99V
notes: scFv in periplasmic extract
B9: PcOxP_DB02_E02 (scFv, V domains shown)
VH: B1 VH with Q32E, N54S, A55G, D57S, E61A
VL: B1 VL with Q61Y, H99S
notes: scFv in periplasmic extract
B10: PcOxP_DB02_C12 (scFv, V domains shown)
VH: B1 VH with Q32H, N54K
VL: B1 VL with S58H, Q61Y, Q96N, H99S
notes: scFv in periplasmic extract

Substitutions are numbered along the chain they refer to.

The first experiment deals with Peptide 5: Biotin-…-[Tyr(PC)]-acid. Briefly: scFv ELISA. (An ELISA detects its analyte on a solid surface through an enzyme-linked reagent.)
As for B1, the OD450 turned out to be 0.77 OD450.

With B2, the OD450 came out at 0.39 OD450.

The molecule B3 displayed an OD450 of 0.75 OD450.

In turn, B4 registered an OD450 of 0.71 OD450.

For B5, the OD450 is 0.92 OD450.

In the case of B6, the OD450 turned out to be 0.27 OD450.

B7: the OD450 was 0.92 OD450.

For the molecule B8, the OD450 stood at 0.61 OD450.

In turn, B9 showed an OD450 of 0.34 OD450.

Take B10: the OD450 worked out at 1.58 OD450.

For another experiment, the target named is Peptide 1: Biotin-…-[Tyr(PC)]-acid. Briefly: scFv ELISA.
As for B1, the OD450 is 0.4 OD450.

Turning to B2, the OD450 stood at 0.22 OD450.

B3 showed an OD450 of 0.37 OD450.

In turn, B4 yielded an OD450 of 0.42 OD450.

B5 yielded an OD450 of 0.44 OD450.

B6: the OD450 turned out to be 0.16 OD450.

In turn, B7 registered an OD450 of 0.64 OD450.

B8 registered an OD450 of 0.54 OD450.

B9 returned an OD450 of 0.09 OD450.

Turning to B10, the OD450 turned out to be 0.97 OD450.

The next experiment deals with BSA (UniProt P02769). Kind of experiment: scFv ELISA.
Chain of BSA (P02769 25-607 limits assumed): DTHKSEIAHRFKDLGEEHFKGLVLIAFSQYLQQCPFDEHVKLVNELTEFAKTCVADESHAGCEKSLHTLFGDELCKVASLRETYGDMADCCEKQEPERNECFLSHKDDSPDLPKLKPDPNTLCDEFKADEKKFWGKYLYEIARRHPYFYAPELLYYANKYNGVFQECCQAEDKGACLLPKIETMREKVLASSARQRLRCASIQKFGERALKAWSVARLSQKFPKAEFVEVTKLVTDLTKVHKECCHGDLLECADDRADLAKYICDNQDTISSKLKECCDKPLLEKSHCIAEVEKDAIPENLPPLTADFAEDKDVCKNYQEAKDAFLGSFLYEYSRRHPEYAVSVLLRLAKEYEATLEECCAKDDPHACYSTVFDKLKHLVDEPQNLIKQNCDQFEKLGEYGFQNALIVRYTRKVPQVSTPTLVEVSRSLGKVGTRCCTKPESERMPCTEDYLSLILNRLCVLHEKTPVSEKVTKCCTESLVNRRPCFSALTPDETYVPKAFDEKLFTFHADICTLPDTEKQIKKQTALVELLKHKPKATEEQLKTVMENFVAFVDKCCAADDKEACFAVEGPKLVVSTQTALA
Regarding B1, the OD450 turned out to be 0.06 OD450.

B2 gave an OD450 of 0.06 OD450.

Molecule B3 displayed an OD450 of 0.08 OD450.

Turning to B4, the OD450 worked out at 0.08 OD450.

In the case of B5, the OD450 was 0.06 OD450.

The molecule B6 registered an OD450 of 0.05 OD450.

With B7, the OD450 was determined as 0.06 OD450.

The molecule B8 returned an OD450 of 0.1 OD450.

The molecule B9 had an OD450 of 0.06 OD450.

On to B10, for which the OD450 turned out to be 0.07 OD450.

The target of the next experiment is T1, Peptide 8: …. Briefly: scFv ELISA. Put shortly:
(§1)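 Bound scFv was read as OD450 after HRP–anti-V5 detection, TMB development and HCl stop. PPE with BSA was incubated 1 h at RT on BSA-blocked wells coated overnight at 4° C. with peptide, or on streptavidin wells loaded 1 h with biotinylated PC-peptides at 1 μg/mL.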
Consider B1, for which the OD450 worked out at 0.04 OD450.

The molecule B2 came in with an OD450 of 0.04 OD450.

In turn, B3 registered an OD450 of 0.05 OD450.

Regarding B4, the OD450 was 0.04 OD450.

B5 gave an OD450 of 0.04 OD450.

With B6, the OD450 worked out at 0.04 OD450.

In turn, B7 returned an OD450 of 0.04 OD450.

B8 came in with an OD450 of 0.05 OD450.

On to B9, for which the OD450 turned out to be 0.05 OD450.

The molecule B10 registered an OD450 of 0.04 OD450.

The target of another experiment is T2, Peptide 4: …. Briefly: scFv ELISA. Put shortly:
as §1
On to B1, for which the OD450 worked out at 0.04 OD450.

B2: the OD450 was determined as 0.06 OD450.

Turning to B3, the OD450 stood at 0.05 OD450.

For B4, the OD450 was found to be 0.04 OD450.

Turning to B5, the OD450 worked out at 0.04 OD450.

In turn, B6 displayed an OD450 of 0.04 OD450.

For B7, the OD450 stood at 0.04 OD450.

Consider B8, for which the OD450 turned out to be 0.05 OD450.

For B9, the OD450 stood at 0.04 OD450.

In turn, B10 registered an OD450 of 0.04 OD450.
